In patent publication US20140072613A1 (published 2014):

T1: PKCµ(h) (human, UniProt Q15139 1-912)
T1 sequence (looked up): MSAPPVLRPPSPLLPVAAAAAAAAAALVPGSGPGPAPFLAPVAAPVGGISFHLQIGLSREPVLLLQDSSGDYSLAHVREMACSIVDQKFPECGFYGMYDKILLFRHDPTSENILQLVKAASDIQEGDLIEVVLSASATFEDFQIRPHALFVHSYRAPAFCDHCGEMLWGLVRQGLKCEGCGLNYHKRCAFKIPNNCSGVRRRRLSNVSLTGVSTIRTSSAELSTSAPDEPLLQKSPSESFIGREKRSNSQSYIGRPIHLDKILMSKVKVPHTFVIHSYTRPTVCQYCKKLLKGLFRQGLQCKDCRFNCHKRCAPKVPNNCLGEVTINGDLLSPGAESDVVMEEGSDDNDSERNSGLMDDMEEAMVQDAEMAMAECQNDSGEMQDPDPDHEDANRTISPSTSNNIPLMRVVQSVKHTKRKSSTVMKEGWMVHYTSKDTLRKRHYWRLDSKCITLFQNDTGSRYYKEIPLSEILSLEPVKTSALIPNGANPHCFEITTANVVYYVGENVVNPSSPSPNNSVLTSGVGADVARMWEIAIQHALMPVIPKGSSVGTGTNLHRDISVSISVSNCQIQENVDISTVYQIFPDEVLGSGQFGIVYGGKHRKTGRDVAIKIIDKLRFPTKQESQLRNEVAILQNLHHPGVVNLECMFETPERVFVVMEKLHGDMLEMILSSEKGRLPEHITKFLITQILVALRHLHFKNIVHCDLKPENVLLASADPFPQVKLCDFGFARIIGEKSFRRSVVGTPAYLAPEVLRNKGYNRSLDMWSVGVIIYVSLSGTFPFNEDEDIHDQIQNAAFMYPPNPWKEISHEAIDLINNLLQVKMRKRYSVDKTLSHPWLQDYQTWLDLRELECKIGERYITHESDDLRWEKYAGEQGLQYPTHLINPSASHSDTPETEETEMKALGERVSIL

T2: DMPK(h) (human, UniProt Q09013 1-629, limits assumed)
T2 sequence (looked up): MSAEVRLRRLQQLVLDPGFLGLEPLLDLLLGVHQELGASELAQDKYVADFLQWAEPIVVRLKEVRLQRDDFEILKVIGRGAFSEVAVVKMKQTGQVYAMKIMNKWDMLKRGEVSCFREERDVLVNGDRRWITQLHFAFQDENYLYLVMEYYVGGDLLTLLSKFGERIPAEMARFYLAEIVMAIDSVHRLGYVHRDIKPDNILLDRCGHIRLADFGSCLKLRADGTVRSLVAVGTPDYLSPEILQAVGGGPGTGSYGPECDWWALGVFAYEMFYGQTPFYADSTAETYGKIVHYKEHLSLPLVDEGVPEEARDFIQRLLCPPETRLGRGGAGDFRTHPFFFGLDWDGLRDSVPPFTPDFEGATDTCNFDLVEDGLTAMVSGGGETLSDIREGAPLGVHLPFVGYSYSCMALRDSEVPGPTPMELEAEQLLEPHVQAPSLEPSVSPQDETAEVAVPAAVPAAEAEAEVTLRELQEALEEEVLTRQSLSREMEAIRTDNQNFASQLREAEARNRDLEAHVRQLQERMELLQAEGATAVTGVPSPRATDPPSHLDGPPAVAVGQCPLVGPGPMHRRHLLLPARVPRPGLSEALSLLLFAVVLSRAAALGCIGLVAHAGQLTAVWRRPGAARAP

T3: SAPK3(h) (human, UniProt P53778 1-367)
T3 sequence (looked up): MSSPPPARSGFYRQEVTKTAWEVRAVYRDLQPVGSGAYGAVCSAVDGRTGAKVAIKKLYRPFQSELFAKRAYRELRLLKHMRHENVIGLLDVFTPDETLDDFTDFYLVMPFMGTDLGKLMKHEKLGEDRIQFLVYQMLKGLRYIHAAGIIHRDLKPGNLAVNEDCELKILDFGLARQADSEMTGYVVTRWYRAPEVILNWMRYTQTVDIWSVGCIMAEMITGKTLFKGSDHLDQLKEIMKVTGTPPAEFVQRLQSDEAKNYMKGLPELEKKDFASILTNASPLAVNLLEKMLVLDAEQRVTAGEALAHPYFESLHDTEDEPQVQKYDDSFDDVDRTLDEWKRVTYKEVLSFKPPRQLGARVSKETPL

T4: EphB2(h) (human, UniProt P29323 565-986, limits assumed)
T4 sequence (looked up): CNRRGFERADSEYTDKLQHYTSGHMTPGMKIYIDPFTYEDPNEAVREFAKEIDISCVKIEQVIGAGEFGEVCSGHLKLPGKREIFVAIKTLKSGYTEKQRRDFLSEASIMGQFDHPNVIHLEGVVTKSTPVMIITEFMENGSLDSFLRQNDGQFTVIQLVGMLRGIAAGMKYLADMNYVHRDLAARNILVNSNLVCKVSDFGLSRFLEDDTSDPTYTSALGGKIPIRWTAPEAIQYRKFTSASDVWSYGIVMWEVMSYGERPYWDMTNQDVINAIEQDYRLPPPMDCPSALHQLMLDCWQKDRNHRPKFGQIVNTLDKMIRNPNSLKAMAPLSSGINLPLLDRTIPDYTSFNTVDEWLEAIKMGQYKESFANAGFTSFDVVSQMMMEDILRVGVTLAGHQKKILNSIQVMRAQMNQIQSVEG

B1: MMI-0400 (peptide)
peptide: KAFAKLAARLYRKALARQLGVAA
B2: MMI-0300 (peptide)
peptide: FAKLAARLYRKALARQLGVAA

Key:
Test in all cases: cell-based or functional assay
WNK2(h) = WNK2(h) (human, UniProt Q9Y3S1 166-489, limits assumed)
HIPK1(h) = HIPK1(h) (human, UniProt Q86Z02 158-555, limits assumed)
PKCµ(h) = molecular target: T1, PKCµ(h)
Plk3(h) = Plk3(h) (human, UniProt Q9H4B4 58-340, limits assumed)
DMPK(h) = molecular target: T2, DMPK(h)
SAPK3(h) = molecular target: T3, SAPK3(h)
Tie2(Y897S)(h) = Tie2(Y897S)(h) (human, UniProt Q02763 771-1124, limits assumed)
EphB2(h) = molecular target: T4, EphB2(h)

Plk3(h), sequence (Q9H4B4 58-340 limits assumed): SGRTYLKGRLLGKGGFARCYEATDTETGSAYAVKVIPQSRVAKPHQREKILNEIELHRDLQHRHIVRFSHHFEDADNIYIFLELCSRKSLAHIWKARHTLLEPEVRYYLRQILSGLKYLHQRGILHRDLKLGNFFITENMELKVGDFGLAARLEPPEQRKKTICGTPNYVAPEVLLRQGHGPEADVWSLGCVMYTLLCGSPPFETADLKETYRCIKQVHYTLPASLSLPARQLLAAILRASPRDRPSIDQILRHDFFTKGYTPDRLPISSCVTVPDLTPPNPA
WNK2(h), sequence (Q9Y3S1 166-489 limits assumed): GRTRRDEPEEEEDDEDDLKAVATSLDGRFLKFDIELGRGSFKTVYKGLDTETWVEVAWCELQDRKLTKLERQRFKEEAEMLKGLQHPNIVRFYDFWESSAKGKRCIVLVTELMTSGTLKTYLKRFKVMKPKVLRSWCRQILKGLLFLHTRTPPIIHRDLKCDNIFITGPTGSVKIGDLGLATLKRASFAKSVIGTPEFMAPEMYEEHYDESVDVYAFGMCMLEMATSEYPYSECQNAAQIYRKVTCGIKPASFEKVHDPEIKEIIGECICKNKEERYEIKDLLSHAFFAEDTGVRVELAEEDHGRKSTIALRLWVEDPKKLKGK
HIPK1(h), sequence (Q86Z02 158-555 limits assumed): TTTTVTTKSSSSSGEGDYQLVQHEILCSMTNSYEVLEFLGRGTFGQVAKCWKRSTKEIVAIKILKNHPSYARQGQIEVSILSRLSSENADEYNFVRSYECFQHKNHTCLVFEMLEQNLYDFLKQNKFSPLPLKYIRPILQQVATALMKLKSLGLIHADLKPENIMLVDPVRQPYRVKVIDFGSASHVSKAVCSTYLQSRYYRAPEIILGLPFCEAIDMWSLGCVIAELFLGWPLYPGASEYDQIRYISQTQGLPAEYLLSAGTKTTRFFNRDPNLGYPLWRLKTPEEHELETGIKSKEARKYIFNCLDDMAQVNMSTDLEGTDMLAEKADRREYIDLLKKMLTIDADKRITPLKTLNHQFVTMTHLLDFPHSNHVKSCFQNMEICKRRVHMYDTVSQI
Tie2(Y897S)(h), sequence (Q02763 771-1124 Y897S limits assumed): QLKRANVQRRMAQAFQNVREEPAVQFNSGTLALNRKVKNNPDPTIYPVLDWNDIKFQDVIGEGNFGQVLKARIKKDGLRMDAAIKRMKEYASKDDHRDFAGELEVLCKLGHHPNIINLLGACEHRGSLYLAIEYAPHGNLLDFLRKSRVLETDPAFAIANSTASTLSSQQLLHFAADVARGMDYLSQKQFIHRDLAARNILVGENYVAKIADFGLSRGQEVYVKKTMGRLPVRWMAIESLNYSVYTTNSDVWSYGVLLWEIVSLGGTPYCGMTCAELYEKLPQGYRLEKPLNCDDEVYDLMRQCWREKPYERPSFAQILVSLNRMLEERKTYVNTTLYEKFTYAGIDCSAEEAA

Binder | % activity, 100 µM (WNK2(h)) | % activity, 100 µM (HIPK1(h)) | % activity, 100 µM (PKCµ(h)) | % activity, 100 µM (Plk3(h)) | % activity, 100 µM (DMPK(h)) | % activity, 100 µM (SAPK3(h)) | % activity, 100 µM (Tie2(Y897S)(h)) | % activity, 100 µM (EphB2(h))
B1 | 54% | 91% | 14% | 129% | 54% | 79% | 87% | 22%
B2 | 64% | 74% | 22% | 127% | 59% | 84% | 83% | 18%
